Target: T1, CHORDII domain of cress (Arabidopsis thaliana) Rar1 (Arabidopsis thaliana, UniProt Q9SE33 149-221)
T1 chain: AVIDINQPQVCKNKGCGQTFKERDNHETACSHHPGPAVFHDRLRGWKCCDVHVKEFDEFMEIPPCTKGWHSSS
Assay: ITC

B1: N-terminal domain of barley (Hordeum vulgare) Hsp90 (domain or fragment)
chain: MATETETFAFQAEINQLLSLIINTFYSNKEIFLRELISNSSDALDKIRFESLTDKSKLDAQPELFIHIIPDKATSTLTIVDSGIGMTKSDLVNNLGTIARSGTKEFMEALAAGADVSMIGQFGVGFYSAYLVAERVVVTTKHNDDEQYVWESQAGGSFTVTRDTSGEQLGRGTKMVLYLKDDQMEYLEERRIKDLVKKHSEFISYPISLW
- Kd: 22.3 µM

Reference: paper PMC2935968 (2010)
